# Laboratory results reported in the nanobody polyreactivity screen of Harvey et al. (2022).
# Experiment: yeast display, Sf9 membrane polyspecificity reagent, FACS + sequencing; frameworks hold sequencing errors
# Method in brief: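 Galactose induction of a Saccharomyces cerevisiae BJ5465 synthetic nanobody display library ran 36–48 hours. The cells were then stained for 1 hour at 4 °C with 10% biotinylated, detergent-solubilized Sf9 membrane reagent, pulled down on streptavidin microbeads and FACS-sorted into low and high (top ~1%) gates on expression and reagent-binding fluorescence. Labels for polyreactivity follow the gate of origin.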
row,Sequence,polyreactivity (PSR sort gate)
1,QVQLVESGGGLVQAGGSLRLSCAASGSILAANAMGWYRQAPGKERELVAAIDWTGGDTYYADSVKGRFTISRDNAKNTVYLQMNSLKPEDTAVYYCAAEFVWPSIAYDVEYDYWGQGTQVTVSS,low polyreactivity
2,QVQLVESGGGLVQAGGSLRLSCAASGSILAGNVMGWYRQAPGKERELVAAITGSGGITYYADSVKGRFTISRDNAKNTVYLQMNSLKPEDTAVYYCNAVPDTRSGELDYWGQGTQVTVSS,low polyreactivity
3,QVQLVESGGGLVQAGGSLRLSCAASGSILAVNAMGWYRQAPGKERELVAAISSRGGSTSYADSVKGRFTISRDNAKNTVYLQMNSLKPEDTAVYYCAVRAVRRLRTSVPVRFYYWGQGTQVTVSS,high polyreactivity
4,QVQLVESGGGLVQAGGSLRLSCAASGSILDSNAMGWYRPAPGKERELVAAITSGGSTYYADSVKGRFTISRDNAKNTVYLQMNSLKPEDTAVYYCAAAYLGYGAVQPSYEGGYWGQGTQVTVSS,low polyreactivity
5,QVQLVESGGGLVQAGGSLRLSCAASGSILFYAMGWYRQAHGKERELVAAITWRGGSTFYADSVKGRFTISRDNAKNTVYLQMNSLKPDDTAVYYCAASYYRYGHRSRGRYYYWGQGTQVTVSS,high polyreactivity
6,QVQLVESGGGLVQAGGSLRLSCAASGSILGDYAMGWDRQAPGKEREFVAAIDGSDGSTYYADSVKGRFTISRDNAKNTVYLQMNILKPEDTEVYYCAATDYDTYRSSWYVYWGQCTQVTVSS,low polyreactivity
7,QVQLVESGGGLVQAGGSLRLSCAASGSILGINVMGWYRQAPGKERELVAAISWRVGRTYYADSVKGRFTISRDNAKKTDDLQMNSLKPEDTAVYYCNVDRWGNIPVGDYDYWGQGTEVTVSS,high polyreactivity
8,QVQLVESGGGLVQAGGSLRLSCAASGSILGLYAMGWYRQAPGKERELVAAISSGGSTYYADSVKGRFTISRDNAKNTVYLQMNSLKPEDSAVYYCAADLSWSRVVFGDYDYWGQGTQVTVSS,low polyreactivity
9,QVQLVESGGGLVQAGGSLRLSCAASGSILGRYAMGWYRQAPGKERELVAAITNRGGSTYYADSVNGRFTISRDNAKNTVYLQMNSLKPEDTAVYYCAAPYSAKELYYRMDYWGQGTQVTVSS,high polyreactivity
10,QVQLVESGGGLVQAGGSLRLSCAASGSILGTYAMGWTIQAPGKERELVAAISSSGRTSYADSEKGRFTISRDNAKNTVYLQMNSLKPEDTAVYYCNASNYIVLINDPDAAPWLYDYWGQVTQVTVSS,low polyreactivity
11,QVQLVESGGGLVQAGGSLRLSCAASGSILGTYAMGWYRQAPGKERELVAAITLSTDGTYYADSVKGRFTISRDNAKNTVYLQMNSLKPEDTAVDYCAAPWNWRWVTQWGYYVRADYFWGQGTQVTVSS,low polyreactivity
12,QVQLVESGGGLVQAGGSLRLSCAASGSILGYYAMGWYRQAPGKERELVAAISSGGSTNYADSVKGRFTISRDNAKNTVYLQMNSLKPEDTAVYYCAADRTYHGGFDYWGQGTQVTVSS,low polyreactivity
13,QVQLVESGGGLVQAGGSLRLSCAASGSILGYYAMGWYRQAPGKERELVADIDNGTSTYYADSVKGRFTISRDNANNTVYLQMISLKPEDTAVYYCADEYYSRYFQSYYWGQGTQVTVSS,low polyreactivity
14,QVQLVESGGGLVQAGGSLRLSCAASGSILGYYAMRWYRQAPGKDRELVAAISSGGSTNYADSVKGRFTISRDNAKNTVYLQMNSLKPEDTAVYYCAADRTYHGGFDYWGLGTQVTVSS,low polyreactivity
15,QVQLVESGGGLVQAGGSLRLSCAASGSILHAYALGWYRQAPGTERELVAAINWSGGSTYYADSVKGRFTISRDNAKNTVYLQMNSLKPEDTAVYYCAKVWRYGRYEYGYWGQGTQVTVSS,high polyreactivity
16,QVQLVESGGGLVQAGGSLRLSCAASGSILIYNAMGWYRQAPGKERELVAGISRRGASTYYADSVKGRFTISRDNAKNTVYLQMNSLKPEDTAVYYCAALGKYIVAWAGDYWGQGTQVTVSS,low polyreactivity
17,QVQLVESGGGLVQAGGSLRLSCAASGSILKFNAMGWYRQAPGKERELVAAITRGTNTYYADSVKGRFTISRDNAKNTVYLQMNSLKPEDSAVYYCAARQPYNAFGYFYWGQGTQVTVSS,low polyreactivity
18,QVQLVESGGGLVQAGGSLRLSCAASGSILKYYAMGWYRQAPGKERELLAAISWSGGRTYYADSVKGRFTISRDNAKNTVYLQMNSLKPEDTAVYYCAAENYGSGSWHGPEYDYWGQGTQVTVSS,low polyreactivity
19,QVQLVESGGGLVQAGGSLRLSCAASGSILKYYAMGWYRQAPGKERELVAAISRSGGSTYYADSVKGRFTISRDNAKITVYLQMTSLKPEDTAVYYCAAYYNLPYHGSDYWGQGTQVTVSS,high polyreactivity
20,QVQLVESGGGLVQAGGSLRLSCAASGSILLGYAMGWYRQAPGKERELVAAITFRGGSTYYADSVKGRFTISRDNAKNTVYLQMNSLKPEATAVYYCAKVWWLYSSTYLRYYWGQGTQVTVSS,low polyreactivity
21,QVQLVESGGGLVQAGGSLRLSCAASGSILLRYAMGWYRQAPGKERELVAAIRTIGASTYYADSVKGRFTISRDNAKNTVYLQMNSLKPEDTAVYYCNAYLAEVLPLGKGRLYDYWGQGTQVTVSS,low polyreactivity
22,QVQLVESGGGLVQAGGSLRLSCAASGSILPRYGMGWYRQAPGKEREFVAAISWRGGRTYYADSVKGRFTISRDNAKNTVYLQMNSLKPEDTAVYYCAARANIYTRLDYWGQGTQVTVSS,high polyreactivity

row,Sequence,polyreactivity (PSR sort gate)
1,QVQLVESGGGLVQAGGSLRLSCAASGSILRPNAMGWYRQAPGKERELVAAITTTGGSTYYADSVKGRFTISRDNAKNTVYLLMNRLKPEDTAVYYCAAEYVYLYYLYLYYYWGQGTQVTVSS,high polyreactivity
2,QVQLVESGGGLVQAGGSLRLSCAASGSILRQYAMGWYRPAPGKERELVAAINSGGSTNYADSVKGRITISRDNAKNTVYLQMNSLKPEDTAVYFCAADWSLYSHEFDYWGQGTQVTVSS,high polyreactivity
3,QVQLVESGGGLVQAGGSLRLSCAASGSILRRYAMGWYRQAPGKERELVAAINYSGGNTYYADSVKGRFTISRDNAKNTVYLQMNSLKPEDTAVYFCAAYYGPYSARYYGGYEYWGQGTQVTVSS,high polyreactivity
4,QVQLVESGGGLVQAGGSLRLSCAASGSILSGYAMGWYRQAPGKERELVAAISWSGGSTYYADSVKGRFTISRDNAKNTVYLQMNSLKPEDTAVYYCAAASVPWGGYYWGQGTQVTVSS,low polyreactivity
5,QVQLVESGGGLVQAGGSLRLSCAASGSILSHYAMGWYRQAPGKERELVAAITTRGGSTYYADSVKGRFTISRDNAKNTVFLQMNSLKPEDTAVYYCAARGGVDSAYYGYWGQGTQVTVSS,high polyreactivity
6,QVQLVESGGGLVQAGGSLRLSCAASGSILSLYTMGWYRQAPGKERELVAAITRSGGSTYYADSVKGRFTISRDNAKNTVYLQMNSLKPEDTAVYYCAATREVTSYSSAPRVYYWGQGTQVTVSS,high polyreactivity
7,QVQLVESGGGLVQAGGSLRLSCAASGSILSSYAMGWYRQAPGKERELVAAISKSGTRTYYADSVKGRFTISRDNAKNTVYLQMNSLKPEDTAVYYCAVVYYGSIFVLEYDYWGQGTQVTVSS,high polyreactivity
8,QVQLVESGGGLVQAGGSLRLSCAASGSILSYNAMGWSRQAPGKERELVATITGTGGSTRYADSVKGRFTISRDNAKNTVYLQMNSLKPEDTAVYYCATAAWWYYRIYHEFGYWGQGTQVTVSS,high polyreactivity
9,QVQLVESGGGLVQAGGSLRLSCAASGSILSYYAMGWYRLAPGKEREFVAAISSGGGTYYADSVKGRFTISRDNAKNTVYLQMNSLKPEDTAVYYCNAVHASSIQFEYWGQGTKVTVSS,low polyreactivity
10,QVQLVESGGGLVQAGGSLRLSCAASGSILSYYAMGWYRQAPGKERELVAAISSTGSTNYADSVKGRFTISRDNAKNTLYLQMNSLKPEDTAVYYCATDGDPYADEGGYWGQGTQVTVSS,high polyreactivity
11,QVQLVESGGGLVQAGGSLRLSCAASGSILTAYAMGWYRQAPGKERELVAAISRGDITKYADSVKGRFTISRDNAKNTVYLQMNRLKPEDTAVYYCAARVPRYSDSTRGRADYYWGQGTQVTVSS,high polyreactivity
12,QVQLVESGGGLVQAGGSLRLSCAASGSILTDNAMGWYRQAPGKERELVASITGSGGSTYYADSVKGRFTISRDNAKNTVYLQMNSLKPEDTAVYYCAASYRLRYGYWGQGTQVTVSS,high polyreactivity
13,QVQLVESGGGLVQAGGSLRLSCAASGSILTDNAMRWYRQAPGKERELVAAITSGGYTYYADSVKGRFTISRDNAKNTVYLHMNILKPEDTAVYYCNADPYTYSYGMYYWGQGTQVTVSS,low polyreactivity
14,QVQLVESGGGLVQAGGSLRLSCAASGSILTYNAMGWYRQAPGKERELVAAITSSGNTNYADSVKGRFTISRDNAKNTVYLQMNSLKPEDTAVYYCARDLREWGQGTQVTVSS,low polyreactivity
15,QVQLVESGGGLVQAGGSLRLSCAASGSILWENAMGWYRQAPGKERELVATISVSGGGTYYADSVKGRFTISRDNAKNTVYLQMNSLKPEDTAVYYCAAPGFPSRNGFGYWGQGTQVTVSS,low polyreactivity
16,QVQLVESGGGLVQAGGSLRLSCAASGSILWEYAMGWYRQAHGKERELVATISSGGCSTNYADSVKGRFTISRDNAKHNFYLPMKSLKPEDTAVYYCNALTSYLVTYEFDSWGIGTQVTVSS,low polyreactivity
17,QVQLVESGGGLVQAGGSLRLSCAASGSILWLNAMGWYRPAPGKERELVADITRGGSTYYADSVKGRFTISRDNAKNTVYLQMNSLKPEDTAVYYCAADAYTGQIPYYYFEHYYWGQGTQVTVSS,high polyreactivity
18,QVQLVESGGGLVQAGGSLRLSCAASGSILWQYAMGWYRQAPGKERELVAAISTGGSTYYAESVKGRFTISRDNAKNTVYLQMNSLKPEDTAVYYCAAYVDYSVYFGGGYWGQGTQVTVSS,low polyreactivity
19,QVQLVESGGGLVQAGGSLRLSCAASGSILYFNAMGWYRQAPGKERELVAAISRTGSRTYYADSVKGRFTISRDNAKNTVYLQMNSLKPEDTAVFYCAAYNGITSHLRFDYWGQGTQVTVSS,high polyreactivity
20,QVQLVESGGGLVQAGGSLRLSCAASGSILYIYAMGWYRQAPGKERELVAAISKNSADTYYADSVKGRFTISRDNAKNTVYLQMNSLKPEDTAVYYCAADVVKVAAYNYWGQGSQVTVSS,low polyreactivity
21,QVQLVESGGGLVQAGGSLRLSCAASGSILYIYAMGWYSQAPGKERELVASINSGGSTNYADSVKGRFTISRDNAKNTVYLQMNSLKPEDTAVYYCNADTIPDGEDRYDYWGQGTQVTVSS,low polyreactivity
